The values below come from paper PMC5799372, “A NIN-LIKE PROTEIN mediates nitrate-induced control of root nodule symbiosis in Lotus japonicus”.

The target in data set [1] is T1, NRSYM1(531-976)-myc (Lotus japonicus (WT, MG-20?), UniProt A0A2Z5V8A6 531-976). As to the kind of experiment: EMSA; 20 mM HEPES-KOH pH 7.9, 50 mM KCl, 1 mM DTT, 4% glycerol, 0.1% Triton X-100, BSA (2 mg) and salmon sperm DNA (1 mg) as printed, 10 ul, 30 min room temperature. To be noted: protein: ivt, tags: 3xMyc (cds cloned downstream of the tag, N-terminal), 5' overhang 4 nt (ggtg) on both strands as printed.

Data set [2] concerns the target T1, NRSYM1(531-976)-myc. Briefly: competition; unlabeled competitor 20x/100x vs CLE-RS2-1 probe; 20 mM HEPES-KOH pH 7.9, 50 mM KCl, 1 mM DTT, 4% glycerol, 0.1% Triton X-100, BSA (2 mg) and salmon sperm DNA (1 mg) as printed, 10 ul, 30 min room temperature. To be noted: protein: ivt; tags: 3xMyc (cds cloned downstream of the tag, N-terminal); label: biotin (probe); 5' overhang 4 nt (ggtg) on both strands as printed.

T1 sequence (A0A2Z5V8A6 entry or part of it): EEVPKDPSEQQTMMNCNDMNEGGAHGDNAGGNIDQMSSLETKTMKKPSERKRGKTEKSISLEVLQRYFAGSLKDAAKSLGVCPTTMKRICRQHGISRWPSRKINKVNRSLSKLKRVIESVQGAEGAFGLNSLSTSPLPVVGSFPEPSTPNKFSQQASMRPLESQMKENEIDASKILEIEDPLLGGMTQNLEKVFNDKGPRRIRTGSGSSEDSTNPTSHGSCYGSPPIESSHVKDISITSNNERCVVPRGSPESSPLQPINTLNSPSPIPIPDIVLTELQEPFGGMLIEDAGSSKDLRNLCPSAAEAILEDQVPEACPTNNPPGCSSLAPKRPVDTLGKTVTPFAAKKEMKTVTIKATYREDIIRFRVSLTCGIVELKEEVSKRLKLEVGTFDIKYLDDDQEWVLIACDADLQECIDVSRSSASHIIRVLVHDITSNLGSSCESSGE

B1: LjNIR1-3 (dsDNA)
DNA 1: GGTGACACAAACACGACCCTTTGTCACAACCAAAGGTCCATTGTAGCA
DNA 2: GGTGTGCTACAATGGACCTTTGGTTGTGACAAAGGGTCGTGTTTGTGT
Turning to B1, in data set [1] (label: biotin (probe)), the binding result is recorded as “binds”.

B2: LjNIR1-3m1 (dsDNA)
DNA 1: GGTGACACAAACACGAGGGAATGTCACAACCAAAGGTCCATTGTAGCA
DNA 2: GGTGTGCTACAATGGACCTTTGGTTGTGACATTCCCTCGTGTTTGTGT
Take B2: the binding result in data set [1] (label: biotin) is reported as “no binding”.

B3: CLE-RS2-3 (dsDNA)
DNA 1: GGTGGTATCAAACTGACCCCTAGTTTCAGTCCAAAGCCACCTTGATTG
DNA 2: GGTGCAATCAAGGTGGCTTTGGACTGAAACTAGGGGTCAGTTTGATAC
As to B3, the binding result in data set [1] (label: biotin (probe)) is recorded as “binds”.

B4: CLE-RS2-1 (dsDNA)
DNA 1: GGTGTGTGAGTTCTGACCCTTAAGCCTTGGAAAGGACAGTCATGCAA
DNA 2: GGTGTTGCATGACTGTCCTTTCCAAGGCTTAAGGGTCAGAACTCACA
As for B4, in data set [1] (label: biotin (probe)), the binding result is listed as “binds”.

B5: CLE-RS2-1m (dsDNA)
DNA 1: GGTGTGTGAGTTCTGAGGGAAAAGCCTTGGAAAGGACAGTCATGCAA
DNA 2: GGTGTTGCATGACTGTCCTTTCCAAGGCTTTTCCCTCAGAACTCACA
B5: the binding result in data set [2] was “no binding”.

B6: CLE-RS2-4 (dsDNA)
DNA 1: GGTGATATATTCATGATCTTTAATTCACTTGAAGAGTTAGTGATTGAT
DNA 2: GGTGATCAATCACTAACTCTTCAAGTGAATTAAAGATCATGAATATAT
Turning to B6, the binding result in data set [1] (label: biotin (probe)) is reported as “binds”.
